Where a chain is given by its changes, count along the chain named.
B1: PvRBP2b human mAb 243244 (antibody, V domains shown)
VH: QVQLVESGGGVVQSGKSLRVSCAASGFTFSSYGMHWVRQAPGKGLEWVAFISYDGDNKYSADSVKGRLTISRDNSKNTLYLQMNSLRPEDTAVYYCAKESNYGENAFDIWGQGTMVTVSS
VL: QSALTQPRSVSGSPGQSVTISCTGTSSDVGFYNFVSWYQHHPGKAPKLIIYDVSERPSGVPDRFSGSKSGNTASLSISGLQPEDEADYYCCSYAGTYTFVFGSGTKVTVL
notes: variable region as the Fab heavy chain in PDB 6WNO; cloned into a human IgG1 backbone, full-length antibody; lambda light chain; as the Fab light chain in PDB 6WNO; IgG1; same clonal group as 237235; source: Expi293 HEK cells, transfected, purified (Protein A, gel filtration)
B2: PvRBP2b human mAb 237235 (antibody, V domains shown)
VH: QVQLVESGGGVVQPGRSLRLSCAASGFMFNSYGMHWVRQAPGKGLEWMAFISYDGSDDYYGDSVKGRITISRDNSKNTLFLHINSLRTEDTAVYYCAKESNYGENAFDVWGHGTMVTVSS
VL: B1 VL with S27N, I49M, S54T, S76T, P82A, D87E, S103H
notes: variable region as the Fab heavy chain in PDB 6WM9; cloned into a human IgG1 backbone, full-length antibody; lambda light chain; as the Fab light chain in PDB 6WM9; IgG1; same clonal group as 243244; source: Expi293 HEK cells, transfected, purified (Protein A, gel filtration)
B3: PvRBP2b human mAb 251249 (antibody, V domains shown)
VH: EVQLVESGGGLVKPGGSLRLSCEASGFLFSSYSMNWVRQAPGKGLEWVSSITGYSSEVFYTDSVKGRFTVSRDNSKNSLYLQMDSLRAEDTAVYYCARALTIFGVVITDYWFFDLWGRGTLVTVSS
VL: EIVLTQSPATLSLSPGDRATLSCRASQSVTTFLAWYQQKPGQAPRLLIYDVSNRATGIPARFSGSGSGTDFTLTISSLEPEDFAVYYCQQRSNWGLTFGGGTKVEIK
notes: variable region as the Fab heavy chain in PDB 6WOZ; cloned into a human IgG1 backbone, full-length antibody; kappa light chain; as the Fab light chain in PDB 6WOZ; IgG1; source: Expi293 HEK cells, transfected, purified (Protein A, gel filtration)
B4: PvRBP2b human mAb 253245 (antibody, V domains shown)
VH: EVQLVQSGAEVKKPGSSMKVSCKASGGTFNRYVFSWVRQAPGQGLEWMGGILPILETTYYAKNFKGRVTITADESTSTVYMELSSLTSEDTAVYFCARDEHDYVWGSYRPSLTGPWGQGTLVTVSS
VL: QSALTQPPSTSGSPGQSVTISCTGTGIDVGGFSYVSWFQYHPGKAPKLIIFEVTKRPSGVPDRFSGSKSGNTASLTISGLQADDEAEYYCSSYAVNNNFVFGTGTKVTVL
notes: variable region as the Fab heavy chain in PDB 6WTY; cloned into a human IgG1 backbone, full-length antibody; lambda light chain; as the Fab light chain in PDB 6WTY; IgG1; source: Expi293 HEK cells, transfected, purified (Protein A, gel filtration)
B5: PvRBP2b human mAb 258259 (antibody, V domains shown)
VH: EVQLLESGGGLVRPGGSQRLSCAASGFTFTPYAMTWVRQAPGKGLEWLSTISGSGGSTYYADSVKGRFTISRDNSKNMLYLQMNSLTAEDTALYYCTKDKDEYTFGHNAFDVWGQGTMVTVSS
VL: SYELTQAPSVSVAPGQTARITCGGDNIGRKTVNWYQQKPGQAPVLVIYYDNDRPSGIPERFSGSNSGNMATLSISRVEVGDEADYYCQVWDSNNDHPVFGGGTKLTVV
notes: variable region as the Fab heavy chain in PDB 6WTV; cloned into a human IgG1 backbone, full-length antibody; lambda light chain; as the Fab light chain in PDB 6WTV; IgG1; same clonal group as 273264; source: Expi293 HEK cells, transfected, purified (Protein A, gel filtration)
B6: PvRBP2b human mAb 273264 (antibody, V domains shown)
VH: B5 VH with Y59S, M78I, N84D, T87R, Q115R
VL: B5 VL with K30T, T31S, N33H, Y48F
notes: variable region as the Fab heavy chain in PDB 6WTU; cloned into a human IgG1 backbone, full-length antibody; lambda light chain; as the Fab light chain in PDB 6WTU; IgG1; same clonal group as 258259; source: Expi293 HEK cells, transfected, purified (Protein A, gel filtration)
B7: PvRBP2b human mAb 241242 (antibody, V domains shown)
VH: EVQLLESGGGLVQPGGSLRLSCAVSGFTFRNYALSWVRQAPGKGLDWVSTISASGGATYYADSVKGHFTISRDNSKNILYLDMKSLRAEDTAIYYCARDGGSYTPYFFLDSWGQGALVTVSS
VL: SYELTQPASVSVAPGQTAQITCGGNSIGRKSIHWYQHKPGQAPVLVISYDSDRPSGIPERFSGSNSGNTATLTISKVEAGDEADFYCQVRDSDNDHVVFGGGTKLTVL
notes: variable region as the Fab heavy chain in PDB 6WN1; cloned into a human IgG1 backbone, full-length antibody; lambda light chain; as the Fab light chain in PDB 6WN1; IgG1; also called 241424 [sic]; source: Expi293 HEK cells, transfected, purified (Protein A, gel filtration)
B8: P. vivax Reticulocyte Binding Protein 2b, residues 161–1454 (domain or fragment, P. vivax strain Salvador I, UniProt A5K736 161-1454, looked up)
chain: PSPESTQITNTTDNIDYFDISDESNYYLISQLRPHFSNIYFFDEFKRYASYHTEIKRYEDIHKTKVNSLLNEASRAIGICNRAKNTVKGLINILENPQKFKTQRESYDVKLRQYEEKKEAFRGCLLNKNRKNLDQIKKINNEIRDLLEKLKCSQDCQTNVYFDMIKIYLVDFKKMPYENYDTFIKQYKNSYLSGVDMIRKIEKQIDNPVTINAIKFTQKEMGYIIDRFEYHLQKVKHSIDQVTALSDGVKPKQVTKNRLKEYYFNIGNYYSIFKFGKDSLNMLNKALIHKEKIVHNLLGELFGHLEERISKLIDSEYFITESNNIISQSEETLKLAEDVYDKNTKLIEDLTLYPHLEINEFKKDYDNNVEDLRESIIYIQSYVSSIKSAYRYNVLEKDSVESKQKNIPANSNAQKKVDELLSIIDSISYSNFSVAENFQKMKDYYKEIEKLKIKILQLIEAIKKYQQHVEELINKEKAVAILKEDINKIIEYIKGIIEKLKQLISANKDFDKIFQQVEQLINEALFNKDQFEHNKNDLHTKMKEIMHTFHERDLQQFLDNMSKFLKDQEASYQNADSKEKLDQLLTTVKAKQDELKEMKCDDIPDIIDNLKKESQNVLNLKDEVINKQFENMRTEMSSSLDQMTKEYNALKSSIEEYEAEKKGIENHKQNIIKRKNTFIVAEHENDEDVPEGKNTYNEFISNKDTILQKESAISNQMNTLEEKKRNRKTTLQTYGDAIQKLETYTEKKDEETKVLLDKFNTEVENFKLDEDEKSFNDAKSIVSNTINEVENENKNIDSIKKVNIAMKRSRSNQQSVEQLIRNKDNLLKEKMEKHFQKINTDEIIGQSAKANLLNNLESEKAIINEQLNDAHLNDLKLQIEKTLSYCEKSRENIKGNNGTHPEELNASEIEWEATKGKIETLNSNYQALNKNMDDIINKQHDEMIVLIDRDIKEKGKDIELKVEQRIQALEKMKAKLSSFDTNEDVKKYQSDINKEELIKLKEMSTAVLNKIDQNKNQLINVKTKSSGYVAESNGIKNKQTEPSQEKDKQIVYNTNRGDIEKVYKNIRDMYNELDDVEKEETTSNEVDNIEMQYDRLLINLLVQKINEENTKAKGLMEEIKSYIENIESVQAKMSDETREGATEFEFNQYQQSSLANDKKITEIVQHAINKKGEAERSKKTNEVKSIKNDVNTYMQQVIDEYNAMQKALGDIKNVNDLLISTSGRRIAEEISKSTNEAENFEKQAKGELGKINDIIEKMENQMVQAKEHENKIHINLEDKQIDEEVQKIRQIHEE
modifications: DyLight 488 (NHS ester) in the FRET assay; biotin (BirA site) in the competition ELISA between human mAbs
notes: PvRBP2b, P. vivax strain Salvador I, PlasmoDB PVX_094255 (total length 2806 amino acids), residues 161-1454; also called PvRBP2b_(161–1454); PvRBP2b; source: recombinant; expressed and purified in a similar manner as PvRBP2b161–470 (E. coli SHuffle T7; HisTrap, Q-Sepharose, size exclusion) or as previously described
B9: PvRBP2b human mAb 283284 (antibody, V domains shown)
VH: QVQLQQWGAGLLKPSETLALTCTVYGGSSSGYYWNWIRQSPGKGLEWIGEISDSGSTIYNPSLESRVTMSVDTSKNQFSLKLTSVTAADTAVYYCAKAILTRYNWLDPWSQGTLVTVSS
VL: DIVMTQSPSSLSASVGDRISISCRASQGVNSALAWYQQKPGKAPKLLIYDASTLESGVPSRFSGSGSGTDFALTINSLQPEDFATYYCQQFNSYPLTFGGGTKVEIK
notes: variable region as the Fab heavy chain in PDB 6WQO; cloned into a human IgG1 backbone, full-length antibody; kappa light chain; as the Fab light chain in PDB 6WQO; IgG1; source: Expi293 HEK cells, transfected, purified (Protein A, gel filtration)

What was measured:
Conditions in all cases: both partners purified
[1] = target: T1, P. vivax Reticulocyte Binding Protein 2b, residues 161–1454 (P. vivax strain Salvador I, UniProt A5K736, DyLight 488 (NHS ester) in the FRET assay; biotin (BirA site) in the competition ELISA between human mAbs); assay: ELISA; plates coated with 65 nM recombinant protein in PBS at 4 °C overnight; human mAbs at 1 μg/mL, 1 h room temperature; HRP anti-human secondary; specificity panel and PvRBP2b fragments
T1 construct: PvRBP2b, P. vivax strain Salvador I, PlasmoDB PVX_094255 (total length 2806 amino acids), residues 161-1454; also called PvRBP2b_(161–1454); PvRBP2b; source: recombinant; expressed and purified in a similar manner as PvRBP2b161–470 (E. coli SHuffle T7; HisTrap, Q-Sepharose, size exclusion) or as previously described

[2] = target: T1, P. vivax Reticulocyte Binding Protein …; assay: ELISA; avidity ELISA: plates coated with 50 ng PvRBP2b161–1454; human mAbs at 0.2 µg/mL; then PBS, 0.5, 1 or 2 M NH4SCN for 20 min; binding relative to no NH4SCN
[3] = target: T1, P. vivax Reticulocyte Binding Protein …; assay: flow cytometry on cells; PvRBP2b161–1454 at 4 μg/mL with human mAbs at 5-fold molar excess and reticulocytes, 1 h room temperature; inhibition relative to no mAb
[4] = target: T1, P. vivax Reticulocyte Binding Protein …; assay: FRET or BRET; PvRBP2b161–1454-DL488, TfR1-DL594 and Tf at 1:1:1 molar ratio, 5-fold excess of human mAbs; 50 mM Tris-HCl pH 6.8, 150 mM NaCl, 0.01% BSA
[5] = target: T2, human Transferrin receptor 1 – Transferrin (human, UniProt P02786 121-760; P02787 20-698, DyLight 594 (NHS ester) in the FRET assay); assay: as above
T2 construct: soluble ectodomain of human transferrin receptor 1, residues 121-760; follows the GP67 leader peptide, a 6xHis-tag and a factor Xa site; transferrin purified from human serum (apo-transferrin), loaded with iron to holo-transferrin; TfR1 and Tf were mixed with PvRBP2b in equal amounts in the assays; also called TfR1–Tf; TfR1 and Tf; copies: 2 + 2
T2 sequence (P02786 121-760, chain 1 of 2): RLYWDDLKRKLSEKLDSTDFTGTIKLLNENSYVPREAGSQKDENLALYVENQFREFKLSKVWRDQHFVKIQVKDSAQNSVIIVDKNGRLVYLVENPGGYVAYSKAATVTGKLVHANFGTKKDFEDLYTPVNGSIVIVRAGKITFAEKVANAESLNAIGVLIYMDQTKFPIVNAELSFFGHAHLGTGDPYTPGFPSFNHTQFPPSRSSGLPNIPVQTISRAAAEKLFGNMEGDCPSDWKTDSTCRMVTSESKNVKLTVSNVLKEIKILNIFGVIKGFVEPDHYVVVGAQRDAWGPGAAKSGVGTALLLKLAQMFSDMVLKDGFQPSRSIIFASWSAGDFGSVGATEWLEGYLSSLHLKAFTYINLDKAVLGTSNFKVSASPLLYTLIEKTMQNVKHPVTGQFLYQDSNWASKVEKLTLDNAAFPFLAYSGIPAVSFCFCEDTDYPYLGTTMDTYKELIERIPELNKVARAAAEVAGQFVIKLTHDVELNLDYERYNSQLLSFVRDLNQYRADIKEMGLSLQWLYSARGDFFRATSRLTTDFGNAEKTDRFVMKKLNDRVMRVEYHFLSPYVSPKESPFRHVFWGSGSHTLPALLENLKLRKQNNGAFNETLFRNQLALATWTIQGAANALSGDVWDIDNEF
T2 sequence (P02787 20-698, chain 2 of 2): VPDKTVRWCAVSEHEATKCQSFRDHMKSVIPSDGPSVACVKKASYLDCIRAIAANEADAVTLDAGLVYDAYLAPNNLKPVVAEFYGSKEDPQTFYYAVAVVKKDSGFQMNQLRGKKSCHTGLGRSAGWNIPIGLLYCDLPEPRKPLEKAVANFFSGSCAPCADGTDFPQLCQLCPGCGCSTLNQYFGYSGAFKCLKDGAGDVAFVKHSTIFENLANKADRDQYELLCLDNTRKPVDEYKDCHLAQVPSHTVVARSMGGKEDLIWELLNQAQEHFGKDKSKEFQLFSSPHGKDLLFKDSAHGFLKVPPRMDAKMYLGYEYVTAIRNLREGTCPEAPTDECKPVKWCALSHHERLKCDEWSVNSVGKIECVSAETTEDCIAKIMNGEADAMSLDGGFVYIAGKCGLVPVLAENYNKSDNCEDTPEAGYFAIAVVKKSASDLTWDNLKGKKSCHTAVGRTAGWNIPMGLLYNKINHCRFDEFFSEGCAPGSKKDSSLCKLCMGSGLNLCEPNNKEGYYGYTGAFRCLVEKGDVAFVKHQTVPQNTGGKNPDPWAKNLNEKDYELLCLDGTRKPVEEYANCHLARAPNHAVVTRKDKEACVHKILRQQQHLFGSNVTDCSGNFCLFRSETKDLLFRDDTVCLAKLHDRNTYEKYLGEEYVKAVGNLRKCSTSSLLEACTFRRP

| Binder | fold signal over control mAbs 099100 and 043038 [1] | percent binding left at 2 M NH4SCN [2] | percent inhibition of PvRBP2b161–1454 binding to reticulocytes [3] | percent binding left at 1 M NH4SCN [2] | percent decrease in FRET signal of PvRBP2b161–1454 with TfR1–Tf [4] | binding result [5] |
| --- | --- | --- | --- | --- | --- | --- |
| B1 | > 20 fold | > 75% | 43% | – | – | – |
| B2 | > 20 fold | > 75% | 47% | – | – | – |
| B3 | > 20 fold | – | 59% | < 75% | – | – |
| B4 | > 20 fold | < 75% | > 98% | > 75% | > 70% | – |
| B5 | > 20 fold | – | > 98% | < 75% | > 70% | – |
| B6 | > 20 fold | – | > 98% | < 75% | > 70% | – |
| B7 | > 20 fold | < 75% | > 98% | > 75% | > 70% | – |
| B8 | – | – | – | – | – | binds |
| B9 | > 20 fold | – | – | < 75% | – | – |
